# Measured values: article PMC5095173, “Disulfide-activated protein kinase G Iα regulates cardiac diastolic relaxation and fine-tunes the Frank–Starling response” (Nature Communications, 2016)
# Columns and labels:
# [1] = test system: PKGIα (analogue-sensitive C42S/M438G), cGMP-activated; test: Chemical genetic phosphoproteomic screen, cGMP-activated PKGIα C42S/M438G versus unactivated control; format: biochemical, human PKGIα; substrates in rat heart homogenate; details: PKGIα C42S/M438G + 100 μM cGMP vs basal; 1 h, 30 °C, pH 7.5, rat heart homogenate; label-free LC–MS/MS; n=4; * P<0.05 Dunnett: all values except phospholamban S16
# Text: (§1) We employed a chemical genetic method[18] to identify direct substrates of cGMP-activated PKGIα and disulfide bond-activated PKGIα in heart tissue. This method involves mutation of the ATP binding-site of the kinase of interest so that it can accept a ‘bulky' N6-alkylated ATP analogue for example, N6^−phenylethyl ATP. An oxygen atom on the γ phosphate is also replaced with a sulfur atom—giving an N6-alkylated ATPγS analogue—so that the mutant kinase catalyses the transfer of a thiophosphate group (–PO3S^3−) to its substrates instead of a phosphate. The thiophosphate group is nucleophilic, providing a basis for substrates of the analogue-sensitive kinase to be purified by a ‘covalent capture' protocol. LC–MS/MS allows identification of the substrate and localization of the phosphorylation site. Thiophosphorylated proteins can also be detected with a thiophosphate ester-specific antibody. Analogue-sensitive mutants of PKGIα and PKGIα C42S (which cannot form the activating intermolecular disulfide bond) were generated by mutating Met438 in the ATP-binding domain to Gly. This mutation was chosen based on a previous study where an analogue-sensitive mutant of the catalytic subunit of PKA—which shares sequence homology with PKGIα—was engineered. Detailed protocols are given below.
# (§2) A pCDNA3 expression vector encoding human FLAG-tagged PKGIα (ref. [41]) underwent site-directed mutagenesis to generate constructs for untagged WT, C42S, M438G and C42S/M438G PKGIα. Mutations were introduced using the QuikChange II Site-Directed Mutagenesis Kit (Agilent) according to the manufacturer's instructions. Expression and purification of the PKGIα mutants was performed according to a published method[42] as follows: suspension FreeStyle 293-F cells (ThermoFisher Scientific) were transfected with the appropriate PKGIα construct using the stable cationic polymer polyethyleneimine (PEI) as a transfection reagent. After ∼72 h cells were harvested by centrifugation (400g; room temperature; 15 min), re-suspended in ice cold lysis buffer (25 mM sodium phosphate buffer pH 6.8; 10 mM ethylenediaminetetraacetic acid (EDTA); 100 mM NaCl; 10 mM benzamidine hydrochloride; and 10 mM dithiothreitol (DTT)) and frozen in liquid N2. Cells were lysed by three freeze (liquid N2)-thaw (37 °C) cycles and the lysate was clarified by centrifugation at 140,000g and 4 °C for 30 min. The soluble protein fraction was loaded onto a pre-equilibrated 8-(2-aminoethylamino)adenosine-3′, 5′-cyclic monophosphate column (8-AEA-cAMP agarose; BioLog, Germany) followed by washing with 20 column volumes of lysis buffer. The column was further washed with lysis buffer +3 M NaCl (5 column volumes) and PKGIα was then eluted with lysis buffer +150 mM NaCl and 500 μM cAMP. Removal of cAMP and buffer exchange was achieved by extensive dialysis against 25 mM sodium phosphate buffer pH 6.8, 2 mM EDTA and 100 mM NaCl. For ITC analysis, WT PKGIα was incubated with 10 mM lipoic acid for 2 h on ice to obtain ∼100% disulfide dimer (confirmed by SDS-PAGE). Oxidized WT or C42S PKGIα was further purified by size exclusion chromatography using a HiLoad 16/600 Superdex 200 pg column (GE Healthcare) with 50 mM sodium phosphate buffer pH 7.4 and 100 mM NaCl. Proteins were concentrated using Amicon Ultra centrifugal filter devices (Merck Millipore). DTT was absent in storage buffers so that the activating disulfide bond would not be reduced and so that the PKGIα M438G mutant would be oxidized to disulfide dimer in the presence of air (confirmed by SDS-PAGE). Protein concentration was determined by Pierce BCA assay (ThermoFisher) and enzyme activity was confirmed using the Omnia kinase assay kit (ThermoFisher).
# (§3) Male Wistar rats (9–10 weeks; body weight 300–330 g) were euthanized by intraperitoneal injection of sodium pentobarbitone (200 mg kg^−1) with heparin (500 USP units). […]
# [2] = test system: PKGIα (analogue-sensitive M438G), disulfide-activated; test: Chemical genetic phosphoproteomic screen, disulfide-activated PKGIα M438G versus unactivated control; format: biochemical, human PKGIα; substrates in rat heart homogenate; details: disulfide-activated PKGIα M438G vs basal; 1 h, 30 °C, pH 7.5, rat heart homogenate; label-free LC–MS/MS; n=4; * P<0.05 Dunnett: only phospholamban S16
# Text: as §1, §2, §3
molecule,measurement,setting,value
"Leucine-rich PPR motif-containing protein, mitochondrial: PKGIα substrate, phospho site S656 (protein, UniProt Q5SGE0 78-1392, looked up, phosphorylated at S656) Leucine-rich PPR …: SGSQFDWALMRLDNSVRRTGRITKGLLQKVFESTCRSGSPGSNQALLLLRSCGSLLPELSLAERTEFAHKIWDKLQQLGTVYDVSHYNALLKVYLQNEYRFSPTDFLAKMEGANIQPNRVTYQRLIAAYCSVGDIEGASKILGFMKTRDLPITEAVFSALVTGHARAGDMESAENILTVMKQAGIEPGPDTYLALLNAHAEKGDIDHVKQILEKVEKSDHYFMDRDFLQIIVSFSKAGYPQYVSEILEKITYERRSIPDAMNLILLLVTEKLEDTAFQVLLALPLARDETSSSFGSFFLRHCVTMDTPAEKLIDYCKRLRDAKVHSSSLQFTLHCALQANKTALAKAVMEALRDEGFPIRTHYFWPLLVGHQKTKNVQGIIDILKIMKEMGVDPDQETYINYVFPCFGSVQSARAALQENKCLPKSTTFAQAEVRNEAINGNLQNILSFLESNALPFSFNSLRGSLILGFRRSMNIDLWSKITELLYKDDRYCQKPPGPTEAVGYFLYNLIDSMSDSEVQAKEERLRQYFHQLREMNVKVSENIYKGICNLLDNYHVPELIKDVKVLVDREKIDSRKTSQFTSSDLESTLEKLKAEGHPVGDPLKQLILLLCSEENMQKALEVKAKYESDMVIGGYAALINLCCRHDNAEDALNLKQEFDRLDPSAVLDTAKYVALVKVLGKHGRVQDAINILKEMKEKDVVIKDAAVLSFFHILNGAALRGEIETVKQLHEAIVTLGLAKPSSNISFPLVTVHLEKDDLPAALEASIACHEKYKVLPRIHDVLCKLIEKGETDLIQKAMDFVSQEQGEMSMLYDLFFAFLQTGNYKEAKKIIETPGIRARPTRLQWFCDRCIANNQVETLEKLVELTEKLFECDRDQMYYNLLKLYKISGDWQRADAVWNKMQEENLIPRERTLRLLAGILKTSNQEVPFDVPELWFGDDRSSLSSSSPSAGDTVTEKMLLSDCRLKKSKDAYNIFLKAEKQDVVFSSEAYSTLVGLLLSKDDFTRAMHVKDFAETHIKGFTLNGAASSLLIIAQVRRDYLKVALETLKAALDLEQVPSELAVTRLIQALALQGDVKSIETIQKMVKGLDAIELSRMVFINNIALAQMKNNEIDAAIENIEHMLASENQTVEHQYFGLSYLFRKVIEEQMEPALEKLSIMSERLANQFALYKPVTDLFLQLVDSGKVDEARALLERCGAIAEQTSILSVFCLRTSQKPKKAPVLKTLLELIPELRENDRVYSCSMKSYVADKDVASAKALYEHLTAKNMKLDDLFLKRYASLLKDVGEPVPFTEPPESFGFYIKQLKEARENPS","Log2 fold change in phosphorylation, cGMP versus control",[1],4.57*
same,"Log2 fold change in phosphorylation, Disulfide versus control",[2],0.77
"Microtubule-associated protein 4: PKGIα substrate, phospho site T899 (protein, UniProt Q5M7W5 2-1057, looked up, phosphorylated at T899) Microtubule-associated …: ADLSLVDALTEPPPEIEGEIKRDFMAALEAEPYDDIVGETVEKTEFIPLLDGDEKSGNSESKRKPCVDTSQVEDIPSSKPTLLANGDHGVEGNNTTGSPTDFLVENVDYEDYQNSQSWPEDASFCFQPQQVLDTNQADPFNVHHDDGLADLLFVSSGPTNASAFIEENNPLEDSYGVLPCDSFAPTAVVSQEWSVGAPDSPHSEPCVSPEVTIETAQPATELSKAVDLESVKEQLPAKALEMMAGQTTDAVPSKESEGSPDTDAAPGPDTDVTLTKDIEESSSPDVISANVTQPFTESDMFLTQEMELLIGTEAAQVKDTMSSVEPDISSAKNTAPPTEEETVPGKDMTFPKEAETALPIEMDLAPPEDVALPKETELELAPAAGTAPLSETEVALAKDEEPSTGIPAAQEMLLSSETEVVLPSDSIMTLTKEVTVPLEAAGPLVSDMTAILETEMTLGGGTATPTETKLGKVKDMAPLPESEVALGKDVVTLPETKVTEFNNVTPLSEEEVASIKDVSPSPETETAKNADLHSGTELTLDNSMTPPSDPALPLETKVATVQIKDKETVQTQEELSEDSQLESVQLEGQSAVPPCTISPEPVKAADQKSTLPVDEGSPLEKLEQKETSGSQPPELCSGVSRQEEGKAAVGLTGNDIATPPNKELPPSPEKKAKPLATTQPAKTSTSKAKIQPTSLPKQPAPTTSGGLNKKPMSLASGSVPAAPHKRPAAATATARPSTLPARDLKPKPITETKVAEKRTSPSKPSSAPALRPGPKTTPTISKATSPSTLVSTGSSSRSPSTTLPKRPTTTKTEGKPADVKRMTAKSATADLSRSKTTSASSVKRNTTPTGATPPAGMASTRVKPMSAPCRSSVALSVDKKPTSTKPSSSAPRVSRLATTVSAPDLKSVRSKVGSTENMKHQPGGGRVQIQNKKVDISKVSSKCGSKANIKHKPGGGDVKIESQKLNFKEKAQAKVGSLDNVGHLPAGGTVKTEGGGSEAPPCPGPPAGEEPAIPEAAPDAGAPTSASGLSGHTTLSGGGDQREPQTLDSQIQETSI","Log2 fold change in phosphorylation, cGMP versus control",[1],3.69*
same,"Log2 fold change in phosphorylation, Disulfide versus control",[2],1.73
"Mitochondrial ribonuclease P protein 1: PKGIα substrate, phospho site T377 (protein, UniProt Q5U2R4 36-414, looked up, phosphorylated at T377) tRNA methyltransferase 10 …: VSSKVPSLPCHNKDSTSPPEQLELDGWKTTMKSSIQENGVSVVSDKDEDSLAATRELIEMWRLLGKEVPEHITEEELKTLMECASKSAKKKYLRYLYGKEMMKKAKQMKKEMKAAAREEAKRARSLEPSTGEEQRDFMFLRLWDRQTNIALGWKGVQAMQFGQPLVFDMAYDNYMKPSELQNTVSQLLESEGWNRRNVDPFHIYFCNLEVDGAYHRELVKRYGEKWDKLLLTATEKSPVDLFPKDSIIYLTADSPNVMTTFKHDKIYIIGSFVDKNTQTGTSLAKAKRQNLATECLPLDKYLQWDVGNKNLTLDQMIRILLCLKNTGNWEEALKFVPRRKHTGYLEVPEHSQAAFRKLKKTKTLNSFRKGSLNVHMWKR","Log2 fold change in phosphorylation, cGMP versus control",[1],1.98*
same,"Log2 fold change in phosphorylation, Disulfide versus control",[2],0.45
"Matrin-3: PKGIα substrate, phospho site T150 (protein, UniProt P43244 2-845, looked up, phosphorylated at T150) Matrin-3: SKSFQQSSLGRDSQGHGRDLSAAGIGLLAAATQSLSMPASLGRMNQGTARLASLMNLGMSSSLNQQGAHSALSSASTSSHNLQSIFNIGSRGPLPLSSQHRGDTDQASNILASFGLSARDLDELSRYPEDKITPENLPQILLQLKRRRTEEGPTLSYGRDGRSATREPPYRVPRDDWEEKRHFRRDSFDDRGPSLNPVLDYDHGSRSQESGYYDRMDYEDDRLRDGERCRDDSFFGETSHNYHKFDSEYERMGRGPGPLQERSLFEKKRGAPPSSNIEDFHGLLPKGYPHLCSICDLPVHSNKEWSQHINGASHSRRCQLLLEIYPEWNPDNDTGHTMGDPFMLQQSTNPAPGILGPPPPSFHLGGPAVGPRGNLGAGNGNLQGPRHMQKGRVETSRVVHIMDFQRGKNLRYQLLQLVEPFGVISNHLILNKINEAFIEMATTEDAQAAVDYYTTTPALVFGKPVRVHLSQKYKRIKKPEGKPDEKFDQKQELGRVIHLSNLPHSGYSDSAVLKLAEPYGKIKNYILMRMKSQAFIEMETREDAMAMVDHCLKKALWFQGRCVKVDLSEKYKKLVLRIPNRGIDLLKKDKSRKRSYSPDGKESPSDKKSKTDGAQKTENPAEGKEQEEKSGEDGEKDTKDDQTEQEPSMLLESEDELLVDEEEAAALIESGSSVGDETDLANLGDVSSDGKKEPSDKAVKKDASATSKKKLKKVDKIEELDQENEAALENGIKNEENTEPGAESAENADDPNKDASDNSDGQNDENKEDYTIPDEYRIGPYQPNVPGGIDYVIPKTGFYCKLCSLFYTNEEVAKNTHCSSLPHYQKLKKFLNKLAEERRQKKES","Log2 fold change in phosphorylation, cGMP versus control",[1],3.58*
same,"Log2 fold change in phosphorylation, Disulfide versus control",[2],1.38
